Results as given in article PMC3538638, “On the Molecular Basis of D-Bifunctional Protein Deficiency Type III” (PLoS ONE, 2013).

Legend:
[1] = target: the molecule itself; experiment: static light scattering (SLS); purified recombinant protein; SLS as described previously [3]; the methods name it for the native HsDH protein
[2] = target: the molecule itself; experiment: SEC; Superdex 200 10/300 GL, 20 mM PIPES/HCl pH 6.8, 150 mM NaCl, 1 mM EDTA, 5% glycerol, 1 mM NaN3, 0.3 ml/min; retention times of wild type and variants compared

B1: wild type 3R-hydroxyacyl-CoA dehydrogenase (DH) fragment of human MFE-2 (multifunctional enzyme type 2) (domain or fragment)
chain: MGSPLRFDGRVVLVTGAGAGLGRAYALAFAERGALVVVNDLGGDFKGVGKGSLAADKVVEEIRRRGGKAVANYDSVEEGEKVVKTALDAFGRIDVVVNNAGILRDRSFARISDEDWDIIHRVHLRGSFQVTRAAWEHMKKQKYGRIIMTSSASGIYGNFGQANYSAAKLGLLGLANSLAIEGRKSNIHCNTIAPNAGSRMTQTVMPEDLVEALKPEYVAPLVLWLCHESCEENGGLFEVGAGWIGKLRWERTLGAIVRQKNHPMTPEAVKANWKKICDFENASKPQSIQESTGSIIEVLSKIDS
notes: 3R-hydroxyacyl-CoA dehydrogenase (DH) fragment of human MFE-2 / D-bifunctional protein; also called HsDH; native HsDH; source: E. coli BL21(DE3)pLysS, pLWRP51::HsDH, purified (Ni-NTA, Superdex 200)
**Q.** With B1 as the protein, how does the “stoichiometry N” value [1] read?
**A.** The value was 2.

B2: HsDH(N158D), patient variant of the 3R-hydroxyacyl-CoA dehydrogenase fragment of human MFE-2 (domain or fragment)
chain: MGSPLRFDGRVVLVTGAGAGLGRAYALAFAERGALVVVNDLGGDFKGVGKGSLAADKVVEEIRRRGGKAVANYDSVEEGEKVVKTALDAFGRIDVVVNNAGILRDRSFARISDEDWDIIHRVHLRGSFQVTRAAWEHMKKQKYGRIIMTSSASGIYGDFGQANYSAAKLGLLGLANSLAIEGRKSNIHCNTIAPNAGSRMTQTVMPEDLVEALKPEYVAPLVLWLCHESCEENGGLFEVGAGWIGKLRWERTLGAIVRQKNHPMTPEAVKANWKKICDFENASKPQSIQESTGSIIEVLSKIDS
notes: Made by site-directed mutagenesis of pLWRP51::HsDH; for the limits see the note of m1; also called N158D variant; source: E. coli BL21(DE3)pLysS, pLWRP51 vector, purified (Ni-NTA, Superdex 200)
**Q.** Does B2 bind [2]?
**A.** Result: binds

B3: HsDH(T15A), patient variant of the 3R-hydroxyacyl-CoA dehydrogenase fragment of human MFE-2 (domain or fragment)
chain: MGSPLRFDGRVVLVAGAGAGLGRAYALAFAERGALVVVNDLGGDFKGVGKGSLAADKVVEEIRRRGGKAVANYDSVEEGEKVVKTALDAFGRIDVVVNNAGILRDRSFARISDEDWDIIHRVHLRGSFQVTRAAWEHMKKQKYGRIIMTSSASGIYGNFGQANYSAAKLGLLGLANSLAIEGRKSNIHCNTIAPNAGSRMTQTVMPEDLVEALKPEYVAPLVLWLCHESCEENGGLFEVGAGWIGKLRWERTLGAIVRQKNHPMTPEAVKANWKKICDFENASKPQSIQESTGSIIEVLSKIDS
notes: Made by site-directed mutagenesis of pLWRP51::HsDH; for the limits see the note of m1; also called T15A variant; source: E. coli BL21(DE3)pLysS, pLWRP51 vector, purified (Ni-NTA, Superdex 200)
**Q.** Does B3 bind [2]?
**A.** Result: binds

B4: HsDH(R248C), patient variant of the 3R-hydroxyacyl-CoA dehydrogenase fragment of human MFE-2 (domain or fragment)
chain: MGSPLRFDGRVVLVTGAGAGLGRAYALAFAERGALVVVNDLGGDFKGVGKGSLAADKVVEEIRRRGGKAVANYDSVEEGEKVVKTALDAFGRIDVVVNNAGILRDRSFARISDEDWDIIHRVHLRGSFQVTRAAWEHMKKQKYGRIIMTSSASGIYGNFGQANYSAAKLGLLGLANSLAIEGRKSNIHCNTIAPNAGSRMTQTVMPEDLVEALKPEYVAPLVLWLCHESCEENGGLFEVGAGWIGKLCWERTLGAIVRQKNHPMTPEAVKANWKKICDFENASKPQSIQESTGSIIEVLSKIDS
notes: Made by site-directed mutagenesis of pLWRP51::HsDH; for the limits see the note of m1; also called R248C variant; source: E. coli BL21(DE3)pLysS, pLWRP51 vector, purified (Ni-NTA, Superdex 200)
**Q.** Does B4 bind [2]?
**A.** Result: binds

B5: HsDH(E232K), patient variant of the 3R-hydroxyacyl-CoA dehydrogenase fragment of human MFE-2 (domain or fragment)
chain: MGSPLRFDGRVVLVTGAGAGLGRAYALAFAERGALVVVNDLGGDFKGVGKGSLAADKVVEEIRRRGGKAVANYDSVEEGEKVVKTALDAFGRIDVVVNNAGILRDRSFARISDEDWDIIHRVHLRGSFQVTRAAWEHMKKQKYGRIIMTSSASGIYGNFGQANYSAAKLGLLGLANSLAIEGRKSNIHCNTIAPNAGSRMTQTVMPEDLVEALKPEYVAPLVLWLCHESCEKNGGLFEVGAGWIGKLRWERTLGAIVRQKNHPMTPEAVKANWKKICDFENASKPQSIQESTGSIIEVLSKIDS
notes: Made by site-directed mutagenesis of pLWRP51::HsDH; for the limits see the note of m1; also called E232K variant; source: E. coli BL21(DE3)pLysS, pLWRP51 vector, purified (Ni-NTA, Superdex 200)
**Q.** Does B5 bind [2]?
**A.** Result: binds

B6: HsDH(W249G), patient variant of the 3R-hydroxyacyl-CoA dehydrogenase fragment of human MFE-2 (domain or fragment)
chain: MGSPLRFDGRVVLVTGAGAGLGRAYALAFAERGALVVVNDLGGDFKGVGKGSLAADKVVEEIRRRGGKAVANYDSVEEGEKVVKTALDAFGRIDVVVNNAGILRDRSFARISDEDWDIIHRVHLRGSFQVTRAAWEHMKKQKYGRIIMTSSASGIYGNFGQANYSAAKLGLLGLANSLAIEGRKSNIHCNTIAPNAGSRMTQTVMPEDLVEALKPEYVAPLVLWLCHESCEENGGLFEVGAGWIGKLRGERTLGAIVRQKNHPMTPEAVKANWKKICDFENASKPQSIQESTGSIIEVLSKIDS
notes: Made by site-directed mutagenesis of pLWRP51::HsDH; for the limits see the note of m1; also called W249G variant; source: E. coli BL21(DE3)pLysS, pLWRP51 vector, purified (Ni-NTA, Superdex 200)
**Q.** Does B6 bind [2]?
**A.** Result: binds
